Laboratory results from patent publication US20190177437A1 (SINGH MOLECULAR MEDICINE, published 2019).

Legend:
[1] = biological target: T1, active human TNF-α full length protein (human, UniProt P01375 77-233); assay: ELISA, TNF coat 0.5 µg/mL, sdAb 1 µg/mL, anti-llama 1:5,000, HRP 1:50,000
[2] = biological target: T1, active human TNF-α full length protein; assay: ELISA, TNF coat 0.25 µg/mL, sdAb 1 µg/mL, anti-llama 1:10,000, HRP 1:25,000
[3] = biological target: T1, active human TNF-α full length protein; assay: ELISA, TNF coat 0.125 µg/mL, sdAb 1 µg/mL, anti-llama 1:10,000, HRP 1:50,000
[4] = biological target: T1, active human TNF-α full length protein; assay: ELISA, TNF coat 0.125 µg/mL, sdAb 1 µg/mL, anti-llama 1:5,000, HRP 1:50,000
[5] = biological target: T1, active human TNF-α full length protein; assay: ELISA, TNF coat 0.25 µg/mL, sdAb 1 µg/mL, anti-llama 1:5,000, HRP 1:50,000
[6] = biological target: T1, active human TNF-α full length protein; assay: ELISA, TNF coat 0.25 µg/mL, sdAb 1 µg/mL, anti-llama 1:5,000, HRP 1:25,000
[7] = biological target: T1, active human TNF-α full length protein; assay: ELISA, TNF coat 0.125 µg/mL, sdAb 1 µg/mL, anti-llama 1:10,000, HRP 1:25,000
[8] = biological target: T1, active human TNF-α full length protein; assay: ELISA, TNF coat 0.5 µg/mL, sdAb 1 µg/mL, anti-llama 1:5,000, HRP 1:25,000
[9] = biological target: T1, active human TNF-α full length protein; assay: ELISA, TNF coat 0.5 µg/mL, sdAb 1 µg/mL, anti-llama 1:10,000, HRP 1:50,000
[10] = biological target: T1, active human TNF-α full length protein; assay: ELISA, TNF coat 0.25 µg/mL, sdAb 1 µg/mL, anti-llama 1:10,000, HRP 1:50,000
[11] = biological target: T1, active human TNF-α full length protein; assay: ELISA, TNF coat 0.125 µg/mL, sdAb 1 µg/mL, anti-llama 1:5,000, HRP 1:25,000
[12] = biological target: T1, active human TNF-α full length protein; assay: ELISA, TNF coat 0.5 µg/mL, sdAb 1 µg/mL, anti-llama 1:10,000, HRP 1:25,000
[13] = biological target: T1, active human TNF-α full length protein

T1 sequence (P01375 77-233 limits assumed): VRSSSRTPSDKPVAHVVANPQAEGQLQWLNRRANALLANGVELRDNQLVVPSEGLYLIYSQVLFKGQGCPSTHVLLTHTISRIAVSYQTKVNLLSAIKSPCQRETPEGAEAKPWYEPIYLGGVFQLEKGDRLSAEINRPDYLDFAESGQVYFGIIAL

| Signal/Noise Ratio [1] [ratio] | Signal/Noise Ratio [2] [ratio] | Signal/Noise Ratio [3] [ratio] | Signal/Noise Ratio [4] [ratio] | Signal/Noise Ratio [5] [ratio] | Signal/Noise Ratio [6] [ratio] | Signal/Noise Ratio [7] [ratio] | Signal/Noise Ratio [8] [ratio] | Signal/Noise Ratio [9] [ratio] | Signal/Noise Ratio [10] [ratio] | Signal/Noise Ratio [11] [ratio] | Signal/Noise Ratio [12] [ratio] | binding result [13] | Binder |
| --- | --- | --- | --- | --- | --- | --- | --- | --- | --- | --- | --- | --- | --- |
| 7.5 | 2.1 | 1.3 | 1.6 | 2.4 | 3.2 | 1.5 | 8 | 3.7 | 1.9 | 1.6 | 5.9 |  | anti-TNF-α VHH69 (SEQ ID NO:46) sdAb (VHH) VHH: EVQLVESGGGSVLAGGSLRLSCVASGFTSRYNYMAWFRQAPGKEREGVATIGTASGSADYYGSVKDRFTISQDNAKNTVYLQMNSLKPEDTAMYYCAARTYGTISLTPSDYRYWGQGTLVTVSS |
| 1.9 | 1.4 | 0.9 | 1.1 | 1.4 | 1.5 | 1.1 | 2 | 1.5 | 1.3 | 1.1 | 1.7 | no binding (tested: 1 µg/mL) | anti-TNF-α VHH62 (SEQ ID NO:47) sdAb (VHH) VHH: QVQLVESGGGPVQAGETLRLSCTASGFTFAEADMGWYRQAPGHECELVSTITTEGITSEASSYYADSVRGRFTISRDNAKNMVYLQMNSLKPEDTAVYYCAPDPYAYSTYSDYCSWAQGTQGTLVTVSS |
